Our source for the Kd values is the Immune Epitope Database (IEDB).

Assay [1] concerns the target HLA-A*24:03. As to the kind of experiment: IEDB peptide-MHC binding, purified MHC/competitive/fluorescence; filed as Kd, often an IC50 or EC50 that approximates it; ≥ and ≤ were set here for values at or beyond the usual limits of such assays.
Assay [2] concerns the target HLA-B*27:03. The description is as above.
The target in assay [3] is HLA-A*02:01. The assay is described as above.
Assay [4] addresses HLA-A*26:01. The description is as above.
Assay [5] concerns the target HLA-B*51:01. The assay is described as above. The following applies: source organism: Vibrio parahaemolyticus K5030.
The target of assay [6] is HLA-B*18:01. The description is as above. Particulars: source organism: Vibrio parahaemolyticus K5030.
The target of assay [7] is HLA-B*57:01. The description is as above.
In assay [8] the target is HLA-A*02:11. Described as above.
Assay [9] concerns the target HLA-A*02:19. Described as above.
In assay [10] the target is HLA-A*29:02. Described as above.
The target of assay [11] is HLA-A*03:01. The assay is described as above.
Assay [12] concerns the target HLA-B*46:01. The description is as above.
Assay [13] addresses HLA-A*01:01. The assay is described as above.
Assay [14] addresses HLA-B*15:17. The description is as above. The following applies: source organism: Cryptosporidium parvum Iowa II.
Assay [15] has as its target HLA-B*15:01. Described as above. Particulars: source organism: Cryptosporidium parvum Iowa II.
Assay [16] deals with HLA-A*02:03. The assay is described as above. Particulars: source organism: Cryptosporidium parvum Iowa II.
Assay [17] concerns the target HLA-A*68:01. Kind of assay: IEDB peptide-MHC binding, purified MHC/competitive/radioactivity; filed as Kd, often an IC50 or EC50 that approximates it; ≥ and ≤ were set here for values at or beyond the usual limits of such assays. Particulars: source organism: Dengue virus 3 Martinique/1243/1999.
Assay [18] addresses HLA-B*15:42. Kind of assay: IEDB peptide-MHC binding, purified MHC/competitive/fluorescence; filed as Kd, often an IC50 or EC50 that approximates it; ≥ and ≤ were set here for values at or beyond the usual limits of such assays. The following applies: source organism: Dengue virus 3 Philippines/H87/1956.
Assay [19] has as its target HLA-B*83:01. The assay is described as above. The following applies: source organism: Dengue virus 3 Philippines/H87/1956.
Assay [20] has as its target HLA-A*31:01. Described as above. The following applies: source organism: Dengue virus 3 Philippines/H87/1956.
For assay [21], the target named is HLA-B*45:06. The assay is described as above. Particulars: source organism: Dengue virus 3 Philippines/H87/1956.
Assay [22] addresses HLA-A*11:01. As to the kind of experiment: IEDB peptide-MHC binding, purified MHC/direct/fluorescence; filed as Kd, often an IC50 or EC50 that approximates it; ≥ and ≤ were set here for values at or beyond the usual limits of such assays.
For assay [23], the target named is HLA-B*07:02. The assay is described as above. Particulars: source organism: Influenza A virus (A/Viet Nam/HN/2004(H5N1)).
Assay [24] deals with HLA-B*27:05. The description is as above. The following applies: source organism: Influenza A virus (A/Viet Nam/HN/2004(H5N1)).
For assay [25], the target named is HLA-A*02:01. Described as above. Particulars: source organism: Influenza A virus (A/Viet Nam/HN/2004(H5N1)).
The target in assay [26] is HLA-A*69:01. The description is as above. The following applies: source organism: Influenza A virus (A/Viet Nam/HN/2004(H5N1)).
The target in assay [27] is HLA-B*15:01. The description is as above. The following applies: source organism: Influenza A virus (A/Viet Nam/HN/2004(H5N1)).
Assay [28] has as its target HLA-A*01:01. The description is as above. Particulars: source organism: Influenza A virus (A/Viet Nam/HN/2004(H5N1)).
The target in assay [29] is HLA-B*39:01. The description is as above. Particulars: source organism: Influenza A virus (A/Viet Nam/HN/2004(H5N1)).
Assay [30] has as its target HLA-A*24:02. The description is as above. The following applies: source organism: Influenza A virus (A/Viet Nam/HN/2004(H5N1)).
Assay [31] addresses HLA-B*58:01. Described as above. Particulars: source organism: Influenza A virus (A/Viet Nam/HN/2004(H5N1)).
Assay [32] addresses HLA-B*40:01. Described as above. The following applies: source organism: Influenza A virus (A/Viet Nam/HN/2004(H5N1)).
In assay [33] the target is HLA-A*03:01. Described as above. The following applies: source organism: Influenza A virus (A/Viet Nam/HN/2004(H5N1)).
Assay [34] has as its target HLA-B*08:01. The description is as above. Particulars: source organism: Influenza A virus (A/Viet Nam/HN/2004(H5N1)).
Assay [35] concerns the target HLA-B*46:01. The description is as above. Particulars: source organism: Influenza A virus (A/Viet Nam/HN/2004(H5N1)).
Assay [36] has as its target HLA-A*31:01. The assay is described as above. The following applies: source organism: Influenza A virus (A/Viet Nam/HN/2004(H5N1)).
Assay [37] concerns the target HLA-B*08:02. The assay is described as above. The following applies: source organism: Influenza A virus(A/swine/Shandong/fNY/2003(H9N2)).
Setting [38] is: source organism: Vibrio parahaemolyticus K5030.
Where [39] appears, read: source organism: Cryptosporidium parvum Iowa II.
Where [40] appears, read: source organism: Encephalitozoon cuniculi GB-M1.

Broadly, the Kd is the constant that tells how readily two partners part at equilibrium.

Turning to AYYKPYVQL, the dissociation constant Kd in [1] (source organism: Bacillus cereus G9241) was 0.0009 µM.
In the case of GYDFEREGY, the Kd in assay [1] (source organism: Influenza A virus (A/swine/Italy/1509-6/97(H1N1))) came to 0.0358 µM.
Consider LQNFCQHLV, for which the Kd in assay [2] (setting [38]) was not below 20 µM; in [3] (setting [38]), 0.0024 µM; in assay [1] (setting [38]), not below 20 µM; in assay [4] (setting [38]), not below 20 µM; in [5] it was not below 20 µM; in [6], not below 20 µM. For the same sequence, the equilibrium dissociation constant (Kd) in assay [7] (setting [38]) is not below 20 µM; in assay [8] (setting [38]), 0.0006 µM; in assay [9] (setting [38]), 0.0251 µM; in assay [10] (setting [38]), 0.0196 µM; in assay [11] (setting [38]) it was not below 20 µM; in assay [12] (setting [38]) it was not below 20 µM.
Regarding MVKMGGLGY, the Kd in assay [13] (source organism: Rotavirus G3) is not below 20 µM; in assay [10] (source organism: Rotavirus G3), 0.0286 µM.
Turning to SGLPGIFIV, the dissociation constant (Kd) in [2] (setting [39]), in assay [3] (setting [39]), in [14], in [15], in assay [4] (setting [39]) and in assay [7] (setting [39]) was not below 20 µM throughout. Further, the Kd in assay [8] (setting [39]) is 5.45 µM; in [9] (setting [39]), not below 20 µM; in assay [11] (setting [39]), not below 20 µM; in [12] (setting [39]), not below 20 µM; in assay [16], not below 20 µM.
Take SMIFSVLDA: the Kd in assay [3] (setting [40]) was found to be 0.0014 µM; in assay [8] (setting [40]) it was 0.129 µM.
Regarding TVMDIISRK, the equilibrium dissociation constant (Kd) is 0.0105 µM in assay [17]; not below 5 µM in [18]; not below 5 µM in assay [19]; not below 50 µM in assay [20]; not below 5 µM in [21]; 0.0017 µM in [22] (source organism: dengue virus type 2).
VHFRNQVKI: the Kd in [23], in assay [24], in assay [25], in [26], in assay [27] and in assay [28] was not below 20 µM in each case. For the same sequence, the Kd is 1.56 µM in assay [29]; not below 20 µM in assay [30]; not below 20 µM in [22] (source organism: Influenza A virus (A/Viet Nam/HN/2004(H5N1))); not below 20 µM in assay [31]; not below 20 µM in assay [32]; not below 20 µM in assay [33]. The Kd in assay [34], in [35], in [36] and in [37] was not below 20 µM in each case.
In the case of VSMDQLASY, the Kd in assay [13] (source organism: Homo sapiens) came to 0.164 µM; in assay [12] (source organism: Homo sapiens) it was 0.0314 µM.
